Test results reported in the supplement of paper PMC7125110.
± gives the standard error. For part of these data: Fewer inactive variants are shown than the library holds.

B1: glmS ribozyme (parent)
chain: AUAAAAGCGCCAGAACUACAGAAAUGUAGUUGACGAGGAGGAGGUUUAUCGAAUUUUCGGCGGAUGCCUCCAAA

What was measured:
Conditions in all cases: with glucosamine-6-phosphate
glucosamine-6-phosphate [1] = variants of: B1; experiment: kcat; higher = faster cleavage; RNA array
Procedure, shortened: (§1)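 E. coli RNA polymerase transcribed barcoded ribozyme variants in situ on sequenced MiSeq chips, which were tracked via a hybridised Cy3 probe at 37 °C. Tiles were imaged over ~14 h after glucosamine-6-phosphate (40 μM to 10 mM) in HEPES/KCl/Mg(OAc)2 buffer was flowed in. Normalised per-tile medians were fit to one- or two-exponential decays for kobs, and kcat and KM came from weighted Michaelis–Menten fits.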

glucosamine-6-phosphate [2] = variants of: B1; experiment: KM; higher = weaker cofactor use; RNA array
Procedure, shortened: as §1

glucosamine-6-phosphate [3] = variants of: B1; experiment: self-cleavage kobs at 40 uM GlcN6P; higher = faster cleavage; RNA array
Procedure, shortened: as §1

glucosamine-6-phosphate [4] = variants of: B1; experiment: self-cleavage kobs at 640 uM GlcN6P; higher = faster cleavage; RNA array
Procedure, shortened: as §1

glucosamine-6-phosphate [5] = variants of: B1; experiment: self-cleavage kobs at 2500 uM GlcN6P; higher = faster cleavage; RNA array
Procedure, shortened: as §1

glucosamine-6-phosphate [6] = variants of: B1; experiment: self-cleavage kobs at 10000 uM GlcN6P; higher = faster cleavage; RNA array
Procedure, shortened: as §1

glucosamine-6-phosphate [7] = variants of: B1; experiment: self-cleavage kobs at 160 uM GlcN6P; higher = faster cleavage; RNA array
Procedure, shortened: as §1

Row | Variant | kcat (glucosamine-6-phosphate [1]) [s⁻¹] | KM (glucosamine-6-phosphate [2]) [µM] | self-cleavage kobs at 40 uM GlcN6P (glucosamine-6-phosphate [3]) [s⁻¹] | self-cleavage kobs at 640 uM GlcN6P (glucosamine-6-phosphate [4]) [s⁻¹] | self-cleavage kobs at 2500 uM GlcN6P (glucosamine-6-phosphate [5]) [s⁻¹] | self-cleavage kobs at 10000 uM GlcN6P (glucosamine-6-phosphate [6]) [s⁻¹] | self-cleavage kobs at 160 uM GlcN6P (glucosamine-6-phosphate [7]) [s⁻¹]
1 | C50A A64G | 1.03e-05 ± 2.3e-07 | 106 ± 36 |  |  |  |  | 
2 | G51A G59U | < 1e-05 | 157 ± 36 | < 1e-05 | < 1e-05 |  |  | 
3 | A48G C68G | 5.98e-05 ± 7.3e-06 |  | 4.65e-05 ± 1.2e-05 | 7.32e-05 ± 1.6e-05 | 5.41e-05 ± 1.2e-05 | 5.84e-05 ± 8.1e-06 | 
4 | C50G G63C | 2.84e-05 ± 1.1e-05 |  |  |  |  |  | 3.67e-05 ± 1.6e-05
5 | G51U C61G | < 1e-05 |  |  |  |  |  | 
6 | C50U C68A C71U | 2.67e-05 ± 9.8e-06 |  |  |  |  |  | 
7 | A48U G66U | 2.75e-05 ± 2.7e-06 |  |  |  |  | 2.42e-05 ± 8e-06 | 
8 | A48C U69C | 7.16e-05 ± 1.1e-05 |  | < 1e-05 | 6.02e-05 ± 1.9e-05 | 9.22e-05 ± 2.4e-05 | 6.44e-05 ± 1.5e-05 | < 1e-05
9 | A52U C71G | 9.41e-05 ± 6.3e-06 | 1700 ± 380 |  | 3.14e-05 ± 1.3e-05 | 5.28e-05 ± 9.2e-06 | 8.19e-05 ± 1e-05 | 
10 | A52U C71A | 0.000156 ± 2.6e-05 |  | < 1e-05 | 5.96e-05 ± 1.3e-05 |  | 0.000144 ± 1.6e-05 | 
11 | A52U C71U | 0.000457 ± 4e-05 | 2130 ± 390 |  | 0.0001 ± 1.4e-05 | 0.000275 ± 2.9e-05 | 0.000362 ± 3.4e-05 | 
12 | A53G C58A | 0.000622 ± 7.5e-05 | 2190 ± 460 |  | 0.000129 ± 1.6e-05 | 0.00036 ± 4.4e-05 | 0.0005 ± 5.8e-05 | 5.7e-05 ± 1.3e-05
13 | G51C C68A | < 1e-05 |  | < 1e-05 |  |  |  | 
14 | A48U A64U | 0.000129 ± 1.1e-05 | 5510 ± 1000 |  |  | 4.13e-05 ± 1.2e-05 | 8.33e-05 ± 1.3e-05 | 
15 | U47G U54A | 0.00987 ± 0.0039 |  | 0.000306 ± 4.7e-05 | 0.00157 ± 0.00052 | 0.00522 ± 0.0019 | 0.00946 ± 0.0015 | 
16 | U47G U54G | 0.0073 ± 0.0022 | 724 ± 320 | 0.00053 ± 8.3e-05 | 0.00367 ± 0.00086 | 0.0063 ± 0.0018 | 0.00685 ± 0.0015 | 0.000915 ± 0.00023
17 | A53U C67A | 0.00367 ± 0.00077 | 785 ± 230 | 0.000214 ± 2.6e-05 | 0.0014 ± 0.00022 |  | 0.00376 ± 0.00054 | 0.000559 ± 8.4e-05
18 | A48G C70A | 4.63e-05 ± 4.7e-06 |  |  |  | 4.55e-05 ± 1.2e-05 | 4.22e-05 ± 6.5e-06 | 
19 | A48G C70U | 0.000237 ± 3.3e-05 | 1840 ± 620 |  | 5.39e-05 ± 1.1e-05 | 0.000179 ± 2.8e-05 | 0.000192 ± 2.1e-05 | 

Row | Variant | kcat (glucosamine-6-phosphate [1]) [s⁻¹] | KM (glucosamine-6-phosphate [2]) [µM] | self-cleavage kobs at 40 uM GlcN6P (glucosamine-6-phosphate [3]) [s⁻¹] | self-cleavage kobs at 640 uM GlcN6P (glucosamine-6-phosphate [4]) [s⁻¹] | self-cleavage kobs at 2500 uM GlcN6P (glucosamine-6-phosphate [5]) [s⁻¹] | self-cleavage kobs at 10000 uM GlcN6P (glucosamine-6-phosphate [6]) [s⁻¹] | self-cleavage kobs at 160 uM GlcN6P (glucosamine-6-phosphate [7]) [s⁻¹]
20 | G51U U57A | < 1e-05 |  |  |  | < 1e-05 | < 1e-05 | 
21 | U49G C71U | 0.00102 ± 0.00022 | 2160 ± 970 | 3.07e-05 ± 9.2e-06 | 0.000246 ± 2.9e-05 | 0.00041 ± 6.9e-05 | 0.000902 ± 7.8e-05 | 
22 | U49G C71A | 0.000155 ± 8.2e-06 | 1460 ± 260 |  | 5.22e-05 ± 1.8e-05 | 8.83e-05 ± 2.5e-05 | 0.000137 ± 1.9e-05 | 
23 | U47G C67G | 0.000689 ± 0.00022 |  | 7.66e-05 ± 1.4e-05 | 0.000248 ± 2.3e-05 | 0.000429 ± 5.2e-05 | 0.000816 ± 9.6e-05 | 0.000105 ± 1.9e-05
24 | U49A C50G C71U | 1.88e-05 ± 4.4e-06 |  |  |  |  |  | 
25 | C50G U54A | 3.07e-05 ± 1e-05 |  | 2.88e-05 ± 1.2e-05 |  | 5.55e-05 ± 2.3e-05 |  | 5.21e-05 ± 1.6e-05
26 | U47G U49G | 8.66e-05 ± 9.3e-06 |  |  |  |  | 8.15e-05 ± 1.2e-05 | 
27 | U49A U69A | 5.14e-05 ± 1.9e-05 |  |  |  |  |  | 
28 | A53G G66A | 0.0293 ± 0.014 |  | 0.000617 ± 0.00011 | 0.00474 ± 0.0013 | 0.0128 ± 0.005 | 0.0293 ± 0.0075 | 
29 | U49G C68G | 3.3e-05 ± 5.3e-06 |  |  |  | 3.47e-05 ± 1.3e-05 |  | 
30 | A48U A52G | 1.32e-05 ± 2.9e-06 |  |  |  |  |  | 
31 | A53G G59A | 0.000102 ± 1.3e-05 | 4360 ± 1300 |  |  | 3.91e-05 ± 1.5e-05 | 7e-05 ± 1.9e-05 | 
32 | A53G G59U | 2.73e-05 ± 4.3e-06 |  |  |  | 2.98e-05 ± 1.2e-05 | 2.45e-05 ± 7.8e-06 | 
33 | A53G C61U | 2.57e-05 ± 1e-06 |  | < 1e-05 |  |  |  | 
34 | U49G A53C | 0.000546 ± 0.00023 |  |  | 7.82e-05 ± 2.4e-05 | 0.000369 ± 6.4e-05 | 0.000368 ± 8.5e-05 | 
35 | U49G A53U | 0.00103 ± 0.00011 | 4490 ± 760 |  | 0.00014 ± 1.9e-05 | 0.000364 ± 5.6e-05 | 0.000709 ± 8.3e-05 | 2.84e-05 ± 8.8e-06
36 | G51U C68G | 4.24e-05 ± 1.1e-05 |  |  | 5.2e-05 ± 9.7e-06 | 4.27e-05 ± 1e-05 |  | 
37 | C50G G59C | 4e-05 ± 1.5e-05 |  |  |  | 5.58e-05 ± 2.3e-05 |  | 6.56e-05 ± 3.2e-05
38 | C50U U55G | 4.41e-05 ± 2.5e-06 | 304 ± 130 |  | 2.74e-05 ± 1.4e-05 | 4.31e-05 ± 7.9e-06 | 4.07e-05 ± 6.8e-06 | 
